CN114002427A (dated 2022)

Molecular target: T1, 新型冠状病毒核衣壳蛋白 (SARS-COV-2, UniProt P0DTC9 1-419)
T1 construct: also called SARS-COV-2 nucleocapsid protein; 新型冠状病毒核衣壳蛋白抗原
Assay: ELISA screening of hybridomas for antigen-specific antibodies

B1: mAb#9 (antibody, V domains shown)
VH: EVQLVESGGGLVKPGGSLKLSCAASGITFSDYYMYWVRQTPEKRLEWVATISDGGSYTYYPDSVKGRFTISRDNAKNNLYLQMSSLKSEDTAMYYCVRDKSMGFGAWFAYWGQGTLVTVSA
VL: EIVLTQSPTTMAASPGEKITITCSASSSISSNYLHWYQQRPGFSPKLLIYRTSNLASGVPARFSGSGSGTSYSLTIGTMEAEDVATYYCQQGHSIPYTFGGGTKLEIK
notes: also called 新型冠状病毒核衣壳抗体(mAb#9); 第二新型冠状病毒核衣壳蛋白抗体
- binding result: binds
